In patent publication US20060222644A1 (Biogen, published 2006):

Tests used:
[1] = target: T1, lymphotoxin beta receptor (LT-β-R) (human, UniProt P36941 31-435); experiment: FACS staining of HT-29 cells with purified antibody; reference huCBE11
T1 construct: whole, on cells; also called LT-β receptor

[2] = target: T1, lymphotoxin beta receptor (LT-β-R); experiment: FACS of Protein A-purified antibodies on HT29 cells
Description: Co-transfections of 293-EBNA cells with chBHA10 and huBHA10 Versions 1-4 were scaled up and conditioned medium was harvested. Antibody was purified on Protein A-Sepharose and purified mAbs were assayed for activity. Binding to the lymphotoxin-beta receptor was determined by FACS analysis of protein A-purified antibodies on the cell-line HT29.
HT29 cells were harvested by treatment with PBS containing 5 mM EDTA for 30 minutes followed by vigorous agitation. Cells were distributed to round-bottom 96-well plates at 2.5×10⁵ cells/well. Supernatants from 293-E cells transfected with BHA10 variants were added to the wells at the indicated dilutions in a total volume of 100 μl and incubated at 4° C. for 1 hour. The cells were washed twice with FACS buffer (PBS containing 5% FBS) and incubated with a 1:100 dilution of PE-conjugated anti-human heavy and light chain antibody (Jackson ImmunoResearch Laboratories) for 1 hour. The cells were then washed 3 times with FACS buffer and resuspended in 100 μl of PBS containing 1.0% paraformaldehyde. Samples were then transferred to the FACS facility for analysis. Protein A-purified antibodies from 293-E cells transfected with BHA10 variants were assayed at the indicated concentrations as shown in FIG. 2. The Protein A-purified CBE11 and 5C8 (anti-CD40L antibody) research standards were used as positive and negative controls, respectively. Rank ordering of binding activity was chBHA10=Version 4 huBHA10=Version 2 huBHA10>Version 3 huBHA10.

T1 sequence (P36941 31-435): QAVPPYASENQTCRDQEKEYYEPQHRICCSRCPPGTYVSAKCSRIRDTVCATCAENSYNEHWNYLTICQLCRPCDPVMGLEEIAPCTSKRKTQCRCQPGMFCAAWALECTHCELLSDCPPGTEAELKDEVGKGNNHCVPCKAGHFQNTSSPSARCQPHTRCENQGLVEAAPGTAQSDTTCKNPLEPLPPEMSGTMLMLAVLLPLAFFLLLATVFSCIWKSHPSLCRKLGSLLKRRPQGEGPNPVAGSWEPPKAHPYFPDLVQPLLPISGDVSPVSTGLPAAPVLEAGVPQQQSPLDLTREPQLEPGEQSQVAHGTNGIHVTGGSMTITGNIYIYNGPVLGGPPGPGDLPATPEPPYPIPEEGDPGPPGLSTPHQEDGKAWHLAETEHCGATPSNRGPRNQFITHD

Binder	apparent Kd, fold relative to huCBE11 [1] [fold]	binding result [2]
chimeric BHA10 (chBHA10) (antibody, human IgG1, V domains shown, expressed in 293-EBNA cells; also called chBHA 0) VH: QVQLQQSGPELVKPGASVRISCKASGYTFTTYYLHWVKQRPGQGLEWIGWIYPGNVHAQYNEKFKGKATLTADKSSSTAYMQLSSLTSEDSAIYFCARSWEGFPYWGQGTTVTVSS VL: DIVMTQSQKFMSTSVGDRVSVTCKASQNVGINVAWYQQKPGQSPKSLISSASYRYSGVPDRFTGSGSGTDFTLTITNVQSEDLAEYFCQQYDTYPFTFGSGTKLEIK	~2	–
Version 4 huBHA10 (antibody, human IgG1, kappa, V domains shown, Heavy chain #3 and Light chain #2; human IgG1/kappa; the 293-EBNA material from pKJS046 may still carry it; also called huBHA10 Version 4; humanized BHA10 antibody version 4) VH: QVQLVQSGAEVKKPGSSVKVSCKASGYTFTTYYLHWVRQAPGQGLEWMGWIYPGNVHAQYNEKFKGRVTITADKSTSTAYMELSSLRSEDTAVYYCARSWEGFPYWGQGTTVTVSS VL: DIQMTQSPSSLSASVGDRVTITCKASQNVGINVAWYQQKPGKAPKSLISSASYRYSGVPSRFSGSGSGTDFTLTISSLQPEDFATYFCQQYDTYPFTFGQGTKVEIKR	–	binds
Version 2 huBHA10 (antibody, human IgG1, V domains shown, also called huBHA10 Version 2) VH: QVQLVQSGAEVKKPGSSVKVSCKASGYTFTTYYLHWVRQAPGQGLEWIGWIYPGNVHAQYNEKFKGRATITADKSTSTAYMELSSLRSEDTAVYYCARSWEGFPYWGQGTTVTVSS VL: DIQMTQSPSSLSASVGDRVTITCKASQNVGINVAWYQQKPGKAPKSLISSASYRYSGVPSRFSGSGSGTDFTLTISSLQPEDFATYFCQQYDTYPFTFGQGTKVEIKR	–	binds
Version 3 huBHA10 (antibody, human IgG1, V domains shown, the 293-EBNA material may still carry it; also called huBHA10 Version 3) VH: QVQLVQSGAEVKKPGSSVKVSCKASGYTFTTYYLHWVRQAPGQGLEWMGWIYPGNVHAQYNEKFKGRVTITADKSTSTAYMELSSLRSEDTAVYYCARSWEGFPYWGQGTTVTVSS VL: DIQMTQSPSSLSASVGDRVTITCKASQNVGINVAWFQQKPGKAPKSLISSASYRYSGVPSRFSGSGSGTDFTLTISSLQPEDFATYYCQQYDTYPFTFGQGTKVEIK	–	binds
